The values below come from article PMC6611726 (Nature, 2019).

Data set [1] concerns the target DDB1 (UV-DDB subunit);DDB2 (UV-DDB subunit) (human;human) (UniProt Q16531+Q92466). The data set can be described thus: fluorescence polarisation. The following applies: N at position 8 = THF abasic site. Background: Fluorescence polarisation rises when a labelled molecule tumbles more slowly, as on binding a larger partner.
The target in data set [2] is DDB1 (human wild-type DDB1) (human, UniProt Q16531 1-1140). The data set can be described thus: cryo-EM structure.
DDB1 (human wild-type DDB1), sequence (Q16531 whole entry): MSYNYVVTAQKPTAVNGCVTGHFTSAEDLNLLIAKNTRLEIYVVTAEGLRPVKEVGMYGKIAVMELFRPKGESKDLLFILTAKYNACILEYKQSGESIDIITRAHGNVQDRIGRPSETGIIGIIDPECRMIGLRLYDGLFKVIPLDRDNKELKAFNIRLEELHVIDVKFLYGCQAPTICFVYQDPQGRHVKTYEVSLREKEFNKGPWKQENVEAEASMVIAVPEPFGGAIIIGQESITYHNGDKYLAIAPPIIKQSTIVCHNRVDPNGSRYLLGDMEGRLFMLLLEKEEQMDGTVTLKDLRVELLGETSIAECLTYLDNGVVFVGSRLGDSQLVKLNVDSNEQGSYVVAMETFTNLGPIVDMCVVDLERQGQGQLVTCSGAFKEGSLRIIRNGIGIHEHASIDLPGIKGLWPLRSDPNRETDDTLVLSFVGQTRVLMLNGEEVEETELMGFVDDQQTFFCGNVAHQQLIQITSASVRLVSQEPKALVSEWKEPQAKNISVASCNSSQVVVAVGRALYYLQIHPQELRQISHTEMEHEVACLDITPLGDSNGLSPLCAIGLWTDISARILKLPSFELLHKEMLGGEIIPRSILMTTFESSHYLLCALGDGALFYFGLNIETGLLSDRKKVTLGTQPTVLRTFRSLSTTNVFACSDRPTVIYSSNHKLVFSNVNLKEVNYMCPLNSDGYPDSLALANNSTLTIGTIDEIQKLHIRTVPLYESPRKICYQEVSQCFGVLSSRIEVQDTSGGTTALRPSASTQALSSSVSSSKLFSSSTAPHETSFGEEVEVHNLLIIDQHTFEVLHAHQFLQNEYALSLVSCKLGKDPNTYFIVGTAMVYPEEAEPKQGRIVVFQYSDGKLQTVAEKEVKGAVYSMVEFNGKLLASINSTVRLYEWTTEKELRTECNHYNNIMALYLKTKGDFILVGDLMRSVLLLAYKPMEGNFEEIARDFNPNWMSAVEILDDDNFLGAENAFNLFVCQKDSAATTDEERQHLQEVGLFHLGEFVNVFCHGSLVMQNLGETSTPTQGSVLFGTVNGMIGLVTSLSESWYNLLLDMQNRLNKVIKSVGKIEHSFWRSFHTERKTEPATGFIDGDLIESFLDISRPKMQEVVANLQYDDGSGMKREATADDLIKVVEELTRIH

DDB1 (UV-DDB subunit);DDB2 (UV-DDB subunit) (human;human), sequence (Q16531 whole entry, chain 1 of 2, one chain of several): as the sequence (Q16531 whole entry) above

For the molecule “AATGAATNAAGCAGG / CCTGCTTTATTCATT [Cy5-15-bp-DNA-THF]”, the dissociation constant Kd in data set [1] was determined as 150 pM.

B1: DDB2 (human wild-type DDB2) (natural protein)
chain: MAPKKRPETQKTSEIVLRPRNKRSRSPLELEPEAKKLCAKGSGPSRRCDSDCLWVGLAGPQILPPCRSIVRTLHQHKLGRASWPSVQQGLQQSFLHTLDSYRILQKAAPFDRRATSLAWHPTHPSTVAVGSKGGDIMLWNFGIKDKPTFIKGIGAGGSITGLKFNPLNTNQFYASSMEGTTRLQDFKGNILRVFASSDTINIWFCSLDVSASSRMVVTGDNVGNVILLNMDGKELWNLRMHKKKVTHVALNPCCDWFLATASVDQTVKIWDLRQVRGKASFLYSLPHRHPVNAACFSPDGARLLTTDQKSEIRVYSASQWDCPLGLIPHPHRHFQHLTPIKAAWHPRYNLIVVGRYPDPNFKSCTPYELRTIDVFDGNSGKMMCQLYDPESSGISSLNEFNPMGDTLASAMGYHILIWSQEEARTRK
On to B1, for which the binding result in data set [2] is “binds”.

In general, Kd refers to the equilibrium constant for the complex coming apart. A high value points to lower affinity.
